Positions count from the first letter of the chain named.
T1: CD19 on CD19-expressing Raji B cells (human, UniProt P15391 20-556)
T1 construct: whole, on cells
T1 sequence (looked up): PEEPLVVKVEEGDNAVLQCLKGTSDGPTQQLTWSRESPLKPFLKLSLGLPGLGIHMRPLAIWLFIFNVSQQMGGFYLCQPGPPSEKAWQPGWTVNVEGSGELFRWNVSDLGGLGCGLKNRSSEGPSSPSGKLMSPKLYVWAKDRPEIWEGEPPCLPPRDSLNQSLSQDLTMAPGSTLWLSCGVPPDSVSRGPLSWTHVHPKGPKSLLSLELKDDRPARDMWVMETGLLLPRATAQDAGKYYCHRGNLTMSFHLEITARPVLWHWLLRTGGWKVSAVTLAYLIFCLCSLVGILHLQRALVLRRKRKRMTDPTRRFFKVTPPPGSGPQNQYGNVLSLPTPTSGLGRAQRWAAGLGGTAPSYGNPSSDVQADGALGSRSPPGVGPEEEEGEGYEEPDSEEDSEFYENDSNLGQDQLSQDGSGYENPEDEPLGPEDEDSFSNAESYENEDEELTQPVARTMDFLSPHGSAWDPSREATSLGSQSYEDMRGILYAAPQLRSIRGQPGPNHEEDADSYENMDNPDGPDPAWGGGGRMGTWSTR

T2: CD20 on CD19 and CD20-expressing Raji B cells (human, UniProt P11836 1-297)
T2 construct: whole, on cells
T2 sequence (looked up): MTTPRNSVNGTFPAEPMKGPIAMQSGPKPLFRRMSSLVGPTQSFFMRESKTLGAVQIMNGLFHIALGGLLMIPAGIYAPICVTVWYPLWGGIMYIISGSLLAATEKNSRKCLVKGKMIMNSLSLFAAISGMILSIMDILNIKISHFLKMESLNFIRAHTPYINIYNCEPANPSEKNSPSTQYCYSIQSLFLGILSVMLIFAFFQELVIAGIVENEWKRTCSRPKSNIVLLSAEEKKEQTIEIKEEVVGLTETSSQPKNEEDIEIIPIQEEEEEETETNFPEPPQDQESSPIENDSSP

B1: v6325, hybrid: aCD3-Teplizumab-hOKT3_Fab chain A and light chain / aCD20-Ofatumumab_scFvFc (VHVL) chain B (bispecific antibody, human IgG1, kappa)
chain 1: QVQLVQSGGGVVQPGRSLRLSCKASGYTFTRYTMHWVRQAPGKGLEWIGYINPSRGYTNYNQKVKDRFTISRDNSKNTAFLQMDSLRPEDTGVYFCARYYDDHYCLDYWGQGTPVTVSSASTKGPSVFPLAPSSKSTSGGTAALGCLVKDYFPEPVTVSWNSGALTSGVHTFPAVLQSSGLYSLSSVVTVPSSSLGTQTYICNVNHKPSNTKVDKKVEPKSCDKTHTCPPCPAPELLGGPSVFLFPPKPKDTLMISRTPEVTCVVVDVSHEDPEVKFNWYVDGVEVHNAKTKPREEQYNSTYRVVSVLTVLHQDWLNGKEYKCKVSNKALPAPIEKTISKAKGQPREPQVYVYPPSRDELTKNQVSLTCLVKGFYPSDIAVEWESNGQPENNYKTTPPVLDSDGSFALVSKLTVDKSRWQQGNVFSCSVMHEALHNHYTQKSLSLSPGK
chain 2: not shown
chain 3: DIQMTQSPSSLSASVGDRVTITCSASSSVSYMNWYQQTPGKAPKRWIYDTSKLASGVPSRFSGSGSGTDYTFTISSLQPEDIATYYCQQWSSNPFTFGQGTKLQITRTVAAPSVFIFPPSDEQLKSGTASVVCLLNNFYPREAKVQWKVDNALQSGNSQESVTEQDSKDSTYSLSSTLTLSKADYEKHKVYACEVTHQGLSSPVTKSFNRGEC
B2: v1813, common light chain: aCD3-foralumab_Fab chain A / aCD20-Ofatumumab_Fab chain B, Ofatumumab light chain (bispecific antibody, human IgG1, kappa)
chain 1: not shown
chain 2: not shown
chain 3: not shown
notes: The single light chain is shared by both Fabs
B3: v1821, common light chain: aCD3-12F6_Fab chain A / aCD20-Rituximab_Fab chain B, Rituximab light chain (bispecific antibody, human IgG1, kappa)
chain 1: QVQLVQSGGGVVQPGRSLRLSCKASGYTFTSYTMHWVRQAPGKGLEWIGYINPSSGYTKYNQKFKDRFTISADKSKSTAFLQMDSLRPEDTGVYFCARWQDYDVYFDYWGQGTPVTVSSASTKGPSVFPLAPSSKSTSGGTAALGCLVKDYFPEPVTVSWNSGALTSGVHTFPAVLQSSGLYSLSSVVTVPSSSLGTQTYICNVNHKPSNTKVDKKVEPKSCDKTHTCPPCPAPELLGGPSVFLFPPKPKDTLMISRTPEVTCVVVDVSHEDPEVKFNWYVDGVEVHNAKTKPREEQYNSTYRVVSVLTVLHQDWLNGKEYKCKVSNKALPAPIEKTISKAKGQPREPQVYVYPPSRDELTKNQVSLTCLVKGFYPSDIAVEWESNGQPENNYKTTPPVLDSDGSFALVSKLTVDKSRWQQGNVFSCSVMHEALHNHYTQKSLSLSPGK
chain 2: not shown
chain 3: QIVLSQSPAILSASPGEKVTMTCRASSSVSYIHWFQQKPGSSPKPWIYATSNLASGVPVRFSGSGSGTSYSLTISRVEAEDAATYYCQQWTSNPPTFGGGTKLEIKRTVAAPSVFIFPPSDEQLKSGTASVVCLLNNFYPREAKVQWKVDNALQSGNSQESVTEQDSKDSTYSLSSTLTLSKADYEKHKVYACEVTHQGLSSPVTKSFNRGEC
notes: as for B2
B4: v5852, hybrid: aCD3-Teplizumab-hOKT3_Fab chain A and light chain / aCD19-MOR208_scFvFc (VHVL) chain B (bispecific antibody, human IgG1, kappa, L234A L235A)
chain 1: B1 chain 1
chain 2: EVQLVESGGGLVKPGGSLKLSCAASGYTFTSYVMHWVRQAPGKGLEWIGYINPYNDGTKYNEKFQGRVTISSDKSISTAYMELSSLRSEDTAMYYCARGTYYYGTRVFDYWGQGTLVTVSSGGGGSGGGGSGGGGSDIVMTQSPATLSLSPGERATLSCRSSKSLQNVNGNTYLYWFQQKPGQSPQLLIYRMSNLNSGVPDRFSGSGSGTEFTLTISSLEPEDFAVYYCMQHLEYPITFGAGTKLEIKAAEPKSSDKTHTCPPCPAPEAAGGPSVFLFPPKPKDTLMISRTPEVTCVVVSVSHEDPEVKFNWYVDGVEVHNAKTKPREEQYNSTYRVVSVLTVLHQDWLNGKEYKCKVSNKALPAPIEKTISKAKGQPREPQVYVLPPSRDELTKNQVSLLCLVKGFYPSDIAVEWESNGQPENNYLTWPPVLDSDGSFFLYSKLTVDKSRWQQGNVFSCSVMHEALHNHYTQKSLSLSPGK
chain 3: B1 chain 3
B5: v1823, common light chain: aCD3-12F6_Fab chain A / aCD20-Tositumumab_Fab chain B, Tositumumab light chain (bispecific antibody, human IgG1, kappa)
chain 1: B3 chain 1
chain 2: not shown
chain 3: B3 chain 3 with I32M, F35Y, T50P, V59A, T91S, S92F, G99A, I105L
notes: as for B2
B6: v4542, cyno/human cross-reactive anti-CD3 BiTE 12C (VH-VL) scFv / anti-CD19 MOR208 (VH-VL) scFv heterodimeric knock-out Fc (bispecific antibody)
chain 1: not shown
chain 2: B4 chain 2
B7: v5851, hybrid: aCD3-BiTEx_I2C_scFvFc (VHVL) chain A / aCD19-MOR208_Fab chain B and light chain (bispecific antibody)
chain 1: not shown
chain 2: not shown
chain 3: DIVMTQSPATLSLSPGERATLSCRSSKSLQNVNGNTYLYWFQQKPGQSPQLLIYRMSNLNSGVPDRFSGSGSGTEFTLTISSLEPEDFAVYYCMQHLEYPITFGAGTKLEIKRTVAAPSVFIFPPSDEQLKSGTASVVCLLNNFYPREAKVQWKVDNALQSGNSQESVTEQDSKDSTYSLSSTLTLSKADYEKHKVYACEVTHQGLSSPVTKSFNRGEC
B8: v5850, hybrid: aCD3-BiTEx_I2C_scFvFc (VHVL) chain A / aCD20-Ofatumumab_Fab chain B and light chain (bispecific antibody)
chain 1: not shown
chain 2: not shown
chain 3: not shown

Biological target: T3, CD3 on CD3-expressing T cells (Jurkat, HPB-ALL) (UniProt P07766 23-207)
T3 construct: whole, on cells; A multi-chain complex on cells; also called CD3 complex
Assay: FACS, Jurkat cells

| Binder | Bmax (OD450) | Kd |
| --- | --- | --- |
| B1 | 2.51 OD450 | 0.00158 µM |
| B2 | 2.54 OD450 | 0.691 µM |
| B3 | 2.11 OD450 | 0.181 µM |
| B4 | 2.21 OD450 | 0.0252 µM |
| B5 | 0.88 OD450 | 0.0688 µM |

Biological target: T1, CD19 on CD19-expressing Raji B cells
Assay: FACS, Raji cells

| Binder | Bmax (OD450) | Kd |
| --- | --- | --- |
| B6 | 2.96 OD450 | 0.0007 µM |
| B7 | 3.88 OD450 | 0.00138 µM |

Biological target: T2, CD20 on CD19 and CD20-expressing Raji B …
Assay: FACS, Raji cells

| Binder | Bmax (OD450) | Kd |
| --- | --- | --- |
| B8 | 4.24 OD450 | 0.0036 µM |
| B1 | 6.44 OD450 | 0.0119 µM |
| B2 | 6.4 OD450 | 0.00404 µM |
| B3 | 4.71 OD450 | 0.122 µM |
